Source: the Immune Epitope Database (IEDB)

Tests used:
HLA-A*31:01 = test: IEDB peptide-MHC binding, purified MHC/direct/fluorescence; filed as Kd, often an IC50 or EC50 that approximates it; ≥ and ≤ were set here for values at or beyond the usual limits of such assays
HLA-A*03:01 = test: as above
HLA-A*30:01 = test: IEDB peptide-MHC binding, purified MHC/competitive/radioactivity; filed as Kd, often an IC50 or EC50 that approximates it; ≥ and ≤ were set here for values at or beyond the usual limits of such assays
HLA-A*02:03 = test: as above
HLA-A*02:06 = test: as above
HLA-A*02:02 = test: as above
HLA-B*15:01 = test: IEDB peptide-MHC binding, purified MHC/direct/fluorescence; filed as Kd, often an IC50 or EC50 that approximates it; ≥ and ≤ were set here for values at or beyond the usual limits of such assays
HLA-A*02:01 [1] = test: as above
HLA-B*40:01 = test: as above; settings: source organism: Influenza A virus (A/Hong Kong/1131/1998(H1N1))
HLA-A*01:01 [2] = test: as above
HLA-B*27:05 = test: as above; settings: source organism: SARS-CoV1
HLA-B*58:01 = test: as above; settings: source organism: SARS-CoV1
HLA-A*02:01 [3] = test: IEDB peptide-MHC binding, purified MHC/competitive/fluorescence; ≥ and ≤ were set here for values at or beyond the usual limits of such assays
HLA-A*11:01 = test: IEDB peptide-MHC binding, purified MHC/direct/fluorescence; filed as Kd, often an IC50 or EC50 that approximates it; ≥ and ≤ were set here for values at or beyond the usual limits of such assays; settings: source organism: SARS-CoV1
HLA-A*01:01 [4] = test: IEDB peptide-MHC binding, purified MHC/competitive/radioactivity; filed as Kd, often an IC50 or EC50 that approximates it; ≥ and ≤ were set here for values at or beyond the usual limits of such assays
HLA-A*69:01 = test: IEDB peptide-MHC binding, purified MHC/direct/fluorescence; filed as Kd, often an IC50 or EC50 that approximates it; ≥ and ≤ were set here for values at or beyond the usual limits of such assays; settings: source organism: Rickettsia prowazekii
[5] = source organism: Coxiella burnetii
[6] = source organism: Dengue virus 4 Philippines/H241/1956
[7] = source organism: Vaccinia virus WR
[8] = source organism: Salmonella enterica subsp. enterica serovar Typhimurium
[9] = source organism: SARS coronavirus Tor2
[10] = source organism: Salmonella enterica
[11] = source organism: Dengue virus 1 Brazil/97-11/1997
[12] = source organism: Sudan ebolavirus
[13] = source organism: Dengue virus 4 Dominica/814669/1981
[14] = source organism: Brucella melitensis

Q: PTWFGISFR was tested. Which Kd (HLA-A*31:01; [5]) did it give?
A: The Kd was 209 nM.

Q: And the Kd (HLA-A*03:01; [5])?
A: Its Kd is at least 20000 nM.

Q: How did the Kd (HLA-A*30:01; [6]) turn out when QAERTGEPDY was run?
A: Its Kd is 6210 nM.

Q: Which Kd (HLA-A*02:03; [7]) does the source give for QIGGEAIFLI here?
A: Its Kd is 0.201 nM.

Q: And the Kd (HLA-A*02:06; [7])?
A: The Kd was 14.8 nM.

Q: What about the Kd (HLA-A*02:02; [7]) of the same sequence?
A: The Kd was 8.19 nM.

Q: With QLCDEITIL as the sequence, how does the Kd (HLA-B*15:01; [8]) read?
A: Its Kd is 1200 nM.

Q: And the Kd (HLA-A*02:01 [1]; [8])?
A: The Kd was 744 nM.

Q: Which results are given for QVLQQNNSFI?
A: Kd (HLA-A*02:03; [7]): 3180 nM; Kd (HLA-A*02:06; [7]): 2320 nM; Kd (HLA-A*02:02; [7]): 544 nM

Q: Which results are given for RAFIYSIMET?
A: Kd (HLA-A*02:03; [7]): 69.7 nM; Kd (HLA-A*02:06; [7]): 578 nM; Kd (HLA-A*02:02; [7]): 81.4 nM

Q: For REKIDGVKL, which Kd (HLA-B*40:01) is on record?
A: The Kd was 46.9 nM.

Q: RFLTHYFTK was tested. Which Kd (HLA-A*01:01 [2]; [5]) did it give?
A: The Kd was at least 20000 nM.

Q: RILGAGCFV was tested. Which Kd (HLA-A*02:03; [9]) did it give?
A: Its Kd is 53.3 nM.

Q: And the Kd (HLA-A*02:06; [9])?
A: Its Kd is 38 nM.

Q: What about the Kd (HLA-A*02:02; [9]) of the same sequence?
A: The Kd was 24.4 nM.

Q: What does the source list for RLYYDSMSY?
A: Kd (HLA-A*31:01; source organism: SARS-CoV1): 6940 nM; Kd (HLA-B*15:01; source organism: SARS-CoV1): 130 nM; Kd (HLA-B*27:05): 4810 nM; Kd (HLA-A*01:01 [2]; source organism: SARS-CoV1): 7950 nM; Kd (HLA-A*02:01 [1]; source organism: SARS-CoV1): ≥ 22800 nM; Kd (HLA-B*58:01): 778 nM

Q: RSQSSTIIV was tested. Which Kd (HLA-A*30:01; [7]) did it give?
A: The Kd was 559 nM.

Q: Which results are given for RSWQPPQPR?
A: Kd (HLA-A*31:01; [10]): 35 nM; Kd (HLA-A*03:01; [10]): ≥ 20000 nM

Q: How did the Kd (HLA-A*30:01; [7]) turn out when RTICTLPYL was run?
A: Its Kd is 0.738 nM.

Q: How did the Kd (HLA-A*30:01; [7]) turn out when RYRMHPMSK was run?
A: The Kd was 0.0676 nM.

Q: With SAVFKDSFL as the sequence, how does the Kd (HLA-A*02:03; [7]) read?
A: The Kd was 536 nM.

Q: And the Kd (HLA-A*02:06; [7])?
A: Its Kd is 1140 nM.

Q: What about the Kd (HLA-A*02:02; [7]) of the same sequence?
A: The Kd was 231 nM.

Q: For SFKKNGAIK, which Kd (HLA-A*30:01; [11]) is on record?
A: Its Kd is 357 nM.

Q: Which results are given for SICLDYIIV?
A: Kd (HLA-A*02:03; [7]): 8650 nM; Kd (HLA-A*02:06; [7]): 689 nM; Kd (HLA-A*02:02; [7]): 1460 nM

Q: SISEINEWL was tested. Which Kd (HLA-A*02:03; [7]) did it give?
A: The Kd was 1.84 nM.

Q: What about the Kd (HLA-A*02:06; [7]) of the same sequence?
A: The Kd was 6.29 nM.

Q: What about the Kd (HLA-A*02:02; [7]) of the same sequence?
A: Its Kd is 0.129 nM.

Q: SSPGPTTEA was tested. Which IC50 (HLA-A*02:01 [3]; [12]) did it give?
A: The IC50 was 14600 nM.

Q: Which Kd (HLA-A*02:03; [7]) does the source give for STVDVRNIV here?
A: The Kd was 3480 nM.

Q: What about the Kd (HLA-A*02:06; [7]) of the same sequence?
A: Its Kd is 1630 nM.

Q: What about the Kd (HLA-A*02:02; [7]) of the same sequence?
A: The Kd was 6330 nM.

Q: For TAYIGTSNWT, which Kd (HLA-A*02:03; [7]) is on record?
A: The Kd was 1050 nM.

Q: What about the Kd (HLA-A*02:06; [7]) of the same sequence?
A: The Kd was 220 nM.

Q: And the Kd (HLA-A*02:02; [7])?
A: Its Kd is 1770 nM.

Q: Which results are given for TIDKSSPLYI?
A: Kd (HLA-A*02:03; [7]): 12.3 nM; Kd (HLA-A*02:06; [7]): 1820 nM; Kd (HLA-A*02:02; [7]): 387 nM

Q: Which Kd (HLA-A*02:03; [7]) does the source give for TLNEYKQLYT here?
A: The Kd was 773 nM.

Q: What about the Kd (HLA-A*02:06; [7]) of the same sequence?
A: Its Kd is at least 69800 nM.

Q: What about the Kd (HLA-A*02:02; [7]) of the same sequence?
A: The Kd was 144 nM.

Q: What does the source list for TMKAIEKDRL?
A: Kd (HLA-A*02:03; [7]): 1060 nM; Kd (HLA-A*02:06; [7]): ≥ 69800 nM; Kd (HLA-A*02:02; [7]): 171 nM

Q: For TSSDTYACW, which Kd (HLA-A*11:01) is on record?
A: The Kd was 19400 nM.

Q: What about the Kd (HLA-B*58:01) of the same sequence?
A: Its Kd is 14.5 nM.

Q: TTLTASLVML was tested. Which Kd (HLA-A*01:01 [4]; [13]) did it give?
A: Its Kd is 1050 nM.

Q: Which results are given for TVPTNDHIPV?
A: Kd (HLA-A*02:03; [7]): 1890 nM; Kd (HLA-A*02:06; [7]): 515 nM; Kd (HLA-A*02:02; [7]): 1680 nM

Q: VASDVCKKNL was tested. Which Kd (HLA-A*02:03; [7]) did it give?
A: Its Kd is at least 70400 nM.

Q: What about the Kd (HLA-A*02:06; [7]) of the same sequence?
A: Its Kd is at least 69800 nM.

Q: What about the Kd (HLA-A*02:02; [7]) of the same sequence?
A: The Kd was at least 50900 nM.

Q: How did the Kd (HLA-A*30:01; [6]) turn out when VKVLRPTPKG was run?
A: Its Kd is 9230 nM.

Q: Which Kd (HLA-A*30:01; [13]) does the source give for VKVLRPTPRG here?
A: The Kd was 6080 nM.

Q: How did the Kd (HLA-A*02:03; [7]) turn out when VLALYSPPLI was run?
A: The Kd was 101 nM.

Q: And the Kd (HLA-A*02:06; [7])?
A: The Kd was 868 nM.

Q: And the Kd (HLA-A*02:02; [7])?
A: Its Kd is 15.7 nM.

Q: For VMKRYSAPSE, which Kd (HLA-A*30:01; [13]) is on record?
A: Its Kd is 6330 nM.

Q: VTAKWLWGFL was tested. Which Kd (HLA-A*01:01 [4]; [11]) did it give?
A: Its Kd is 17700 nM.

Q: What does the source list for VTTNNLLEQL?
A: Kd (HLA-A*02:03; [7]): 17900 nM; Kd (HLA-A*02:06; [7]): 5910 nM; Kd (HLA-A*02:02; [7]): 4690 nM

Q: Which results are given for VVGKPYKEV?
A: Kd (HLA-A*02:01 [1]; source organism: Rickettsia prowazekii): 1960 nM; Kd (HLA-A*69:01): 605 nM

Q: How did the Kd (HLA-A*02:03; [7]) turn out when WLTPFEKEFT was run?
A: The Kd was 1550 nM.

Q: What about the Kd (HLA-A*02:06; [7]) of the same sequence?
A: Its Kd is at least 30800 nM.

Q: What about the Kd (HLA-A*02:02; [7]) of the same sequence?
A: Its Kd is 2370 nM.

Q: What does the source list for WMARRHAER?
A: Kd (HLA-A*31:01; [14]): 13.9 nM; Kd (HLA-A*03:01; [14]): ≥ 20000 nM

Q: YIPPCQCTV was tested. Which Kd (HLA-A*02:03; [7]) did it give?
A: The Kd was 445 nM.

Q: What about the Kd (HLA-A*02:06; [7]) of the same sequence?
A: Its Kd is 92.5 nM.

Q: And the Kd (HLA-A*02:02; [7])?
A: Its Kd is 196 nM.

Q: For YKLFLESGA, which IC50 (HLA-A*02:01 [3]; source organism: Zaire ebolavirus) is on record?
A: Its IC50 is at least 209000 nM.

Q: With YTRPEIDVL as the sequence, how does the Kd (HLA-A*02:03; [7]) read?
A: The Kd was 73.6 nM.

Q: And the Kd (HLA-A*02:06; [7])?
A: The Kd was 154 nM.

Q: What about the Kd (HLA-A*02:02; [7]) of the same sequence?
A: The Kd was 115 nM.

Q: How did the IC50 (HLA-A*02:01 [3]; [12]) turn out when YVHKAQGTG was run?
A: Its IC50 is at least 236000 nM.

Q: How did the Kd (HLA-A*02:03; [7]) turn out when YVPSAEDNYL was run?
A: The Kd was at least 70400 nM.

Q: What about the Kd (HLA-A*02:06; [7]) of the same sequence?
A: Its Kd is at least 69800 nM.

Q: And the Kd (HLA-A*02:02; [7])?
A: Its Kd is at least 70000 nM.
